{
  "source": "paper PMC7570871",
  "about": "“Evaluation of a New ^177Lu-Labeled Somatostatin Analog for the Treatment of Tumors Expressing Somatostatin Receptor Subtypes 2 and 5” (Molecules, 2020)",
  "key": {"[1]": {"type": "physicochemical", "settings": "pH 7.4", "protocol": "To a pre-saturated mixture of 500 µL 1-octanol and 500 µL of phosphate-buffered saline (PBS) (pH 7.4), 10 µL of 1 µM of the ^177Lu-labeled conjugates were added. The solution was vortexed for 1 h to reach the equilibrium and then centrifuged (3000 rpm) for 10 min. From each phase, 100 µL of the aliquot was removed and measured in a γ-counter. Each measurement was repeated three times. Care was taken to avoid cross-contamination between the phases. The partition coefficient was calculated as the average of the logarithmic values (n = 3) of the ratio between the radioactivity in the organic and the PBS phase."}, "in vivo [2]": {"assay": "in vivo", "settings": "mouse, 100 pmol, total radioactivity", "protocol": "The mice were sacrificed 4 h p.i. and accumulation of the radiotracer in the tumors and in all organs of interest was quantified in a γ-counter."}, "in vivo [3]": {"assay": "in vivo", "settings": "female, mouse, total radioactivity", "protocol": "The Veterinary Office (Department of Health) of the Cantonal Basel-Stadt approved the animal experiments (approval no. 2799) in accordance with the Swiss regulations for animal treatment. Female athymic Nude-Foxn1^nu/Foxn1^+ mice (Envigo, The Netherlands), 4–6 weeks old, were injected subcutaneously with 10^7 HEK-SST2 cells in the right shoulder and 10^7 HEK-SST5 cells in the left shoulder, freshly suspended in 100 μL sterile phosphate-buffered saline. The tumors were allowed to grow for 2–3 weeks.\nAt the selected time points, the mice were sacrificed and the organs of interest were collected, rinsed, blotted, weighed and counted in a γ-counter. The results are expressed as a percentage of injected activity per gram (%IA/g) obtained by extrapolation from counts of an aliquot taken from the injected solution as a standard.\nAt the preselected time points, the mice were sacrificed and the organs of interest were collected, rinsed, blotted, weighed and counted in a γ-counter. The results are expressed as a percentage of injected activity per gram (%IA/g) obtained by extrapolation from counts of an aliquot taken from the injected solution as a standard."}, "[4]": {"settings": "athymic Nude-Foxn1^nu/Foxn1^+, 100 pmol, Pancreas uptake"}, "[5]": {"settings": "athymic Nude-Foxn1^nu/Foxn1^+, 100 pmol, Spleen uptake"}, "[6]": {"settings": "athymic Nude-Foxn1^nu/Foxn1^+, 100 pmol, Stomach uptake"}, "[7]": {"settings": "athymic Nude-Foxn1nu/Foxn1+, 10 pmol, Adrenal uptake"}, "[8]": {"settings": "athymic Nude-Foxn1nu/Foxn1+, 10 pmol, Blood uptake"}, "[9]": {"settings": "athymic Nude-Foxn1nu/Foxn1+, 10 pmol, Bone uptake"}, "[10]": {"settings": "athymic Nude-Foxn1nu/Foxn1+, 10 pmol, Heart uptake"}, "[11]": {"settings": "athymic Nude-Foxn1nu/Foxn1+, 10 pmol, Intestine uptake"}, "[12]": {"settings": "athymic Nude-Foxn1nu/Foxn1+, 10 pmol, Kidney uptake"}, "[13]": {"settings": "athymic Nude-Foxn1nu/Foxn1+, 10 pmol, Liver uptake"}, "[14]": {"settings": "athymic Nude-Foxn1nu/Foxn1+, 10 pmol, Lung uptake"}, "[15]": {"settings": "athymic Nude-Foxn1nu/Foxn1+, 10 pmol, Muscle uptake"}, "[16]": {"settings": "athymic Nude-Foxn1nu/Foxn1+, 10 pmol, Pancreas uptake"}, "[17]": {"settings": "athymic Nude-Foxn1nu/Foxn1+, 10 pmol, SST2-tumor uptake"}, "[18]": {"settings": "athymic Nude-Foxn1nu/Foxn1+, 10 pmol, SST5-tumor uptake"}, "[19]": {"settings": "athymic Nude-Foxn1nu/Foxn1+, 10 pmol, Spleen uptake"}, "[20]": {"settings": "athymic Nude-Foxn1nu/Foxn1+, 10 pmol, Stomach uptake"}, "[21]": {"settings": "athymic Nude-Foxn1nu/Foxn1+, 100 pmol, Adrenal uptake"}},
  "data": [
    {"smiles": "CC(C)[C@@H]1NC(=O)[C@H](CCCCN)NC(=O)[C@@H](Cc2c[nH]c3ccccc23)NC(=O)[C@H](Cc2ccc(O)c(I)c2)NC(=O)[C@@H](NC(=O)[C@@H](Cc2ccc(N)c(I)c2)NC(=O)CN2CCN(CC(=O)O)CCN(CC(=O)O)CCN(CC(=O)O)CC2)CSSC[C@@H](C(=O)N[C@H](C(N)=O)[C@@H](C)O)NC1=O", "note": "[[^177Lu]Lu-DOTA-ST8950, metal not drawn]", "values": [
      {"measurement": "logD", "setting": "[1]", "value": "-1.2 ± 0.1"},
      {"measurement": "tissue uptake at 4 h", "setting": "in vivo [2]; Adrenal uptake", "value": "5.45 ± 2.26", "unit": "%ID/g"},
      {"measurement": "tissue uptake at 4 h", "setting": "in vivo [2]; Blood uptake", "value": "0.1 ± 0.02", "unit": "%ID/g"},
      {"measurement": "tissue uptake at 4 h", "setting": "in vivo [2]; Femur uptake", "value": "0.56 ± 0.24", "unit": "%ID/g"},
      {"measurement": "tissue uptake at 4 h", "setting": "in vivo [2]; Heart uptake", "value": "0.18 ± 0.03", "unit": "%ID/g"},
      {"measurement": "tissue uptake at 4 h", "setting": "in vivo [2]; Intestine uptake", "value": "1.35 ± 0.14", "unit": "%ID/g"},
      {"measurement": "tissue uptake at 4 h", "setting": "in vivo [2]; Kidney uptake", "value": "8.96 ± 1.39", "unit": "%ID/g"},
      {"measurement": "tissue uptake at 4 h", "setting": "in vivo [2]; Liver uptake", "value": "2.28 ± 0.2", "unit": "%ID/g"},
      {"measurement": "tissue uptake at 4 h", "setting": "in vivo [2]; Lung uptake", "value": "2.43 ± 1.21", "unit": "%ID/g"},
      {"measurement": "tissue uptake at 4 h", "setting": "in vivo [2]; Muscle uptake", "value": "0.15 ± 0.02", "unit": "%ID/g"},
      {"measurement": "tissue uptake at 4 h", "setting": "in vivo [2]; SST(-)-tumor uptake", "value": "0.7 ± 0.08", "unit": "%ID/g"},
      {"measurement": "tissue uptake at 4 h", "setting": "in vivo [2]; Spleen uptake", "value": "0.84 ± 0.06", "unit": "%ID/g"},
      {"measurement": "tissue uptake at 4 h", "setting": "in vivo [2]; Stomach uptake", "value": "4.89 ± 0.94", "unit": "%ID/g"},
      {"measurement": "tissue uptake at 168 h", "setting": "in vivo [3]; athymic Nude-Foxn1^nu/Foxn1^+, 100 pmol, Liver uptake", "value": "0.54 ± 0.09", "unit": "%ID/g"},
      {"measurement": "tissue uptake at 24 h", "setting": "in vivo [3]; [4]", "value": "1.68 ± 0.27", "unit": "%ID/g"},
      {"measurement": "tissue uptake at 72 h", "setting": "in vivo [3]; [4]", "value": "0.72 ± 0.14", "unit": "%ID/g"},
      {"measurement": "tissue uptake at 168 h", "setting": "in vivo [3]; [4]", "value": "0.37 ± 0.05", "unit": "%ID/g"},
      {"measurement": "tissue uptake at 24 h", "setting": "in vivo [3]; [5]", "value": "0.36 ± 0.24", "unit": "%ID/g"},
      {"measurement": "tissue uptake at 72 h", "setting": "in vivo [3]; [5]", "value": "0.38 ± 0.12", "unit": "%ID/g"},
      {"measurement": "tissue uptake at 168 h", "setting": "in vivo [3]; [5]", "value": "0.27 ± 0.05", "unit": "%ID/g"},
      {"measurement": "tissue uptake at 24 h", "setting": "in vivo [3]; [6]", "value": "2.61 ± 0.44", "unit": "%ID/g"},
      {"measurement": "tissue uptake at 72 h", "setting": "in vivo [3]; [6]", "value": "1.66 ± 0.49", "unit": "%ID/g"},
      {"measurement": "tissue uptake at 168 h", "setting": "in vivo [3]; [6]", "value": "0.99 ± 0.04", "unit": "%ID/g"},
      {"measurement": "tissue uptake at 1 h", "setting": "in vivo [3]; [7]", "value": "6.01 ± 1.15", "unit": "%ID/g"},
      {"measurement": "tissue uptake at 4 h", "setting": "in vivo [3]; [7]", "value": "5.37 ± 1.17", "unit": "%ID/g"},
      {"measurement": "tissue uptake at 1 h", "setting": "in vivo [3]; [8]", "value": "1.3 ± 0.24", "unit": "%ID/g"},
      {"measurement": "tissue uptake at 4 h", "setting": "in vivo [3]; [8]", "value": "0.15 ± 0.02", "unit": "%ID/g"},
      {"measurement": "tissue uptake at 1 h", "setting": "in vivo [3]; [9]", "value": "1.35 ± 0.25", "unit": "%ID/g"},
      {"measurement": "tissue uptake at 4 h", "setting": "in vivo [3]; [9]", "value": "1.12 ± 0.38", "unit": "%ID/g"},
      {"measurement": "tissue uptake at 1 h", "setting": "in vivo [3]; [10]", "value": "0.84 ± 0.18", "unit": "%ID/g"},
      {"measurement": "tissue uptake at 4 h", "setting": "in vivo [3]; [10]", "value": "0.2 ± 0.04", "unit": "%ID/g"},
      {"measurement": "tissue uptake at 1 h", "setting": "in vivo [3]; [11]", "value": "3.08 ± 0.38", "unit": "%ID/g"},
      {"measurement": "tissue uptake at 4 h", "setting": "in vivo [3]; [11]", "value": "2.29 ± 0.42", "unit": "%ID/g"},
      {"measurement": "tissue uptake at 1 h", "setting": "in vivo [3]; [12]", "value": "11.7 ± 1.79", "unit": "%ID/g"},
      {"measurement": "tissue uptake at 4 h", "setting": "in vivo [3]; [12]", "value": "10.8 ± 1.27", "unit": "%ID/g"},
      {"measurement": "tissue uptake at 1 h", "setting": "in vivo [3]; [13]", "value": "2.73 ± 0.59", "unit": "%ID/g"},
      {"measurement": "tissue uptake at 4 h", "setting": "in vivo [3]; [13]", "value": "2.2 ± 0.27", "unit": "%ID/g"},
      {"measurement": "tissue uptake at 1 h", "setting": "in vivo [3]; [14]", "value": "7.12 ± 2.59", "unit": "%ID/g"},
      {"measurement": "tissue uptake at 4 h", "setting": "in vivo [3]; [14]", "value": "3.81 ± 0.98", "unit": "%ID/g"},
      {"measurement": "tissue uptake at 1 h", "setting": "in vivo [3]; [15]", "value": "0.4 ± 0.07", "unit": "%ID/g"},
      {"measurement": "tissue uptake at 4 h", "setting": "in vivo [3]; [15]", "value": "0.13 ± 0.02", "unit": "%ID/g"},
      {"measurement": "tissue uptake at 1 h", "setting": "in vivo [3]; [16]", "value": "5.99 ± 1.75", "unit": "%ID/g"},
      {"measurement": "tissue uptake at 4 h", "setting": "in vivo [3]; [16]", "value": "3.21 ± 0.5", "unit": "%ID/g"},
      {"measurement": "tissue uptake at 1 h", "setting": "in vivo [3]; [17]", "value": "12.1 ± 3.94", "unit": "%ID/g"},
      {"measurement": "tissue uptake at 4 h", "setting": "in vivo [3]; [17]", "value": "10.3 ± 2.78", "unit": "%ID/g"},
      {"measurement": "tissue uptake at 1 h", "setting": "in vivo [3]; [18]", "value": "1.94 ± 0.46", "unit": "%ID/g"},
      {"measurement": "tissue uptake at 4 h", "setting": "in vivo [3]; [18]", "value": "1.52 ± 0.75", "unit": "%ID/g"},
      {"measurement": "tissue uptake at 1 h", "setting": "in vivo [3]; [19]", "value": "1.82 ± 0.26", "unit": "%ID/g"},
      {"measurement": "tissue uptake at 4 h", "setting": "in vivo [3]; [19]", "value": "0.96 ± 0.18", "unit": "%ID/g"},
      {"measurement": "tissue uptake at 1 h", "setting": "in vivo [3]; [20]", "value": "9.68 ± 2.34", "unit": "%ID/g"},
      {"measurement": "tissue uptake at 4 h", "setting": "in vivo [3]; [20]", "value": "6.03 ± 1.28", "unit": "%ID/g"},
      {"measurement": "tissue uptake at 1 h", "setting": "in vivo [3]; [21]", "value": "4.23 ± 0.68", "unit": "%ID/g"},
      {"measurement": "tissue uptake at 4 h", "setting": "in vivo [3]; [21]", "value": "5.21 ± 1.92", "unit": "%ID/g"},
      {"measurement": "tissue uptake at 24 h", "setting": "in vivo [3]; [21]", "value": "3.81 ± 1.08", "unit": "%ID/g"},
      {"measurement": "tissue uptake at 72 h", "setting": "in vivo [3]; [21]", "value": "2.86 ± 1.3", "unit": "%ID/g"}
    ]}
  ]
}
